Measured values reported in patent US20050153872A1, “Methods and compositions for the treatment of infection” (priority 2004, published 2005).

Experiments:
[1] = test system: Candida albicans ATCC 10231; assay: In vitro cell growth inhibition assay (OD595, filaments); settings: Ph-CA 5 μg/ml; Ph-SA 5 μg/ml; ampicillin 50 μg/ml; amphotericin B 200 ng/ml; fluconazole 3 μg/ml
[2] = test system: Staphylococcus aureus ATCC 29213; assay: In vivo protection of infected mice; set-up: species or system Kungming mice; settings: i.p. infection 3.6 × 10^5 cfu/ml
In short: (§1)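 Kunming mice (18–22 g, both sexes) were infected intraperitoneally with a lethal dose of staphylococci, enterococci or E. coli; agents were diluted in sterile water to 10, 5 and 2.5 mg/L. Deaths were counted every 24 h over 7–14 days.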

Escherichia coli 02-1-65 [3] = assay: In vivo protection of infected mice; set-up: species or system Kungming mice; settings: i.p. infection 3.3 × 10^5 cfu/ml
In short: as §1

[4] = test system: Enterococcus faecalis ATCC 700802; assay: microbe, parasite or virus in culture; type: cell-based; settings: Enterococcus faecalis, ATCC700802
[5] = test system: Aspergillus niger SWA 1011 strain; assay: In vitro cell growth inhibition assay; settings: Ph-CA 5 μg/ml; Ph-SA 5 μg/ml; amphotericin B 200 ng/ml; Fluconazole 3 μg/ml
MRSA strain ATCC BAA-42 = assay: Electron micrographs of bactericidal effects; type: cell-based, S. aureus; settings: Ph-SA 50 μg/ml 0.5 hrs; wild type colicin Ia 50 μg/ml 2 hrs; AgrDI 10 μg/ml 2 hrs
Text: Electron Micrographs of Bactericidal Effects of Ph-SA1 Against ATCC BAA-42 MRSA Strain Cells (1% Phosphotungstic Acid. 25,000×)

[6] = test system: S. aureus strain ATCC BAA-42 MRSA; settings: all agents 5 μg/ml
[7] = test system: HL-7702 human liver cells; assay: Toxicity assessment in mammalian cells; type: cell-based; settings: about 200 micrograms per ml; 48 hours incubation
Protocol: (§2) To assess potential toxicity to mammalian cells, HL-7702 human liver cells and SMMC-7721 human hepatocellular carcinoma cells (Institute of Biochemistry & Cell Biology, Shanghai, Chinese Academy of Science) were grown in 1640 medium and treated with various fusion peptides. The concentration of antivirus and antibacterial peptides used for treating the cells was about 200 micrograms per ml. Equal amounts of stock solution (20 mM PBS, pH 7.4) was added to the control cells.

[8] = test system: SMMC-7721 human hepatocellular carcinoma cells; assay: Toxicity assessment in mammalian cells; type: cell-based; settings: about 200 micrograms per ml; 48 hours incubation
Protocol: as §2

Escherichia coli 02-1-65 [9] = assay: MIC against challenge strain (Table 3); type: cell-based
[10] = test system: Staphylococcus aureus MRSA BAA-42; assay: In vivo protection of infected mice; set-up: species or system Kungming mice; settings: mice, i.p. infection 5.5 × 10^5 cfu/ml
In short: as §1

[11] = test system: Enterococcus faecalis ATCC 700802; assay: In vivo protection of infected mice; set-up: species or system Kungming mice; settings: mice, i.p. infection 8.0 × 10^6 cfu/ml
In short: as §1

[12] = test system: Staphylococcus aureus MRSA 02-18; assay: In vivo protection of infected mice; set-up: species or system Kungming mice; settings: mice, i.p. infection 1.7 × 10^5 cfu/ml
In short: as §1

[13] = test system: Staphylococcus aureus MRSA 02-18; assay: microbe, parasite or virus in culture; type: cell-based; settings: Staphylococcus aureus MRSA 02-18
ATCC 700802 VRE cells = assay: Electron micrographs of bactericidal effects of Ph-EF; type: cell-based, Enterococcus; settings: Ph-EF 10 ug/ml 0.5 and 2 hr; Ph-SA 10 ug/ml 2 hr; vancomycin 20 ug/ml 2 hr
Protocol: Electron Microraphs of Bactericidal Effects of Ph-EF Against ATCC 700802 VRE Cells (1% Phosphotungstic Acid, 15.000×).
Bactericidal effects of ph-EF were tested and monitored by electron microscopy. FIG. 16 depicts electron micrographs of (a) untreated cells; (b) and (c) cells treated with Ph-EF (10 ug/ml) for 0.5 hr; (d) untreated cells for 2 hr; (e) cells treated by Ph-SA (10 ug/ml) for 2 hr; (f) cells treated with vancomycin (20 ug/ml) for 2 hr; (g) and (h) cells treated with Ph-EF (10 ug/ml) for 2 hrs.

[14] = test system: Staphylococcus epidermidis MRSE strain (25); assay: In vitro antibacterial activity (MIC), clinical isolates; type: cell-based; settings: 25 MRSE clinical isolates
In short: (§3)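 Clinical isolates collected in Sichuan and Beijing in 2002, identified with the API system, were exposed to test compound to determine MIC50, MIC90 and MIC range. S. aureus ATCC25923, 29213 and BAA-42 served as control strains.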

[15] = test system: Staphylococcus epidermidis MSSE strain (21); assay: as above; type: cell-based; settings: 21 MSSE clinical isolates
In short: as §3

[16] = test system: Staphylococcus aureus MRSA strain (80); assay: as above; type: cell-based; settings: 80 MRSA clinical isolates
In short: as §3

Enterococcus (20) = assay: as above; type: cell-based; settings: 20 Enterococcus clinical isolates
In short: as §3

Acenetobactor (20) = assay: as above; type: cell-based; settings: 20 Acenetobactor clinical isolates
In short: as §3

[17] = test system: Staphylococcus aureus MSSA strain (88); assay: as above; type: cell-based; settings: 88 MSSA clinical isolates
In short: as §3

[18] = test system: S. epidermidis BQIOC 26069; type: cell-based; settings: all agents at 2 ug/ml
Protocol: All agents were at 2 ug/ml.

[19] = test system: Staphylococcus aureus MRSA BAA-42; assay: microbe, parasite or virus in culture; type: cell-based; settings: Staphylococcus aureus MRSA BAA-42
[20] = test system: Staphylococcus aureus ATCC 29213; assay: MIC against challenge strain (Table 3); type: cell-based
[21] = 1st Time, i.v. treatment after one hour
[22] = 2nd Time (value in parentheses), i.v. treatment

B1: Ph-SA1: Colicin Ia linked to the AgrDI pheromone of S. aureus (protein)
chain: SDPVRITNPGAESLGYDSDGHEIMAVDIYVNPPRVDVFHGTPPAWSSFGNKTIWGGNEWVDDSPTRSDIEKRDKEITAYKNTLSAQQKENENKRTEAGKRLSAAIAAREKDENTLKTLRAGNADAADITRQEFRLLQAELREYGFRTEIAGYDALRLHTESRMLFADADSLRISPREARSLIEQAEKRQKDAQNADKKAADMLAEYERRKGILDTRLSELEKNGGAALAVLDAQQARLLGQQTRNDRAISEARNKLSSVTESLNTARNALTRAEQQLTQQKNTPDGKTIVSPEKFPGRSSTNHSIVVSGDPRFAGTIKITTSAVIDNRANLNYLLSHSGLDYKRNILNDRNPVVTEDVEGDKKIYNAEVAEWDKLRQRLLDARNKITSAESAVNSARNNLSARTNEQKHANDALNALLKEKENIRNQLSGINQKIAEEKRKQDELKATKDAINFTTEFLKSVSEKYGAKAEQLAREMAGQAKGKKIRNVEEALKTYEKYRADINKKINAKDRAAIAAALESVKLSDISSNLNRFSRGLGYAGKFTSLADWITEFGKAVRTENWRPLFVKTETIIAGNAATALVALVFSILTGSALGIIGYGLLMAVTGALIDESLVEKANKFWGIYSTCDFIM
modifications: Colicin attached to Pheromone peptide encoding Staphylococcus aureus AgrDI
[1]
  effect on growth of Candida albicans: no effect on the growth
[2]; [21]
  ED50: 10.35 mg/kg
[2]; [22]
  ED50: (8.87) mg/kg
Escherichia coli 02-1-65 [3]; [21]
  ED50: 3.14 mg/kg
Escherichia coli 02-1-65 [3]; [22]
  ED50: (3.12) mg/kg
[4]
  MIC: 4 µg/mL
[5]
  effect on growth of Aspergillus niger: no effect on the growth
MRSA strain ATCC BAA-42
  bactericidal effect / effect on cell growth (electron micrographs): killed BAA-42 MRSA cells
[6]
  inhibition of growth: best inhibitory effects
[7]
  cell morphology and cell growth (toxicity): not toxic to the liver cells
[8]
  cell morphology and cell growth (toxicity): not toxic to the liver cells
Escherichia coli 02-1-65 [9]
  MIC: 1 µg/mL
[10]; [21]
  ED50: 4.32 mg/kg
[10]; [22]
  ED50: (4.23) mg/kg
[11]; [21]
  ED50: 4.23 mg/kg
[11]; [22]
  ED50: (3.70) mg/kg
[12]; [21]
  ED50: 3.84 mg/kg
[12]; [22]
  ED50: (4.24) mg/kg
[13]
  MIC: 0.5 µg/mL
ATCC 700802 VRE cells
  morphological alteration in VRE cells (electron micrographs): no morphological alteration
[14]
  MIC50: >64 µg/mL
  MIC90: >64 µg/mL
[15]
  MIC50: 0.25 µg/mL
  MIC90: 16 µg/mL
  MIC Scope: 0.125˜32 mg/l
[16]
  MIC50: 16> mg/l
  MIC90: 16 µg/mL
  MIC Scope: <0.0005˜64 mg/l
Enterococcus (20)
  MIC50: >64 µg/mL
  MIC90: >64 µg/mL
Acenetobactor (20)
  MIC50: 32 µg/mL
  MIC90: >64 µg/mL
[17]
  MIC50: 0.5 µg/mL
  MIC90: 16 µg/mL
[18]
  inhibition of cell growth: only partially inhibited
[19]
  MIC: 0.5 µg/mL
[20]
  MIC: 0.25 µg/mL
